Targets include GST-Rab11 Q70L (human) (UniProt P62491); GST-Rab11 S25N (human) (UniProt P62491); GST-Rab11 WT (human) (UniProt P62491).
Assay in all cases: pull-down; GST-Rab11 proteins immobilized on glutathione-Sepharose beads; lysates of cells expressing GFP-SPIN90 in buffer B (25 mM HEPES, 100 mM NaCl, 5 mM MgCl2, 1% NP-40, 10% glycerol); 2 h at 4 °C; immunoblot with anti-GFP
Background: Immunoblotting shows a protein as a band on a membrane.

With “GFP-SPIN90 C-term (C) (domain or fragment)”, the results for the relative band intensity (normalized to GST-Rab11 WT with SPIN90 FL) in the assay with GST-Rab11 Q70L (human), with GST-Rab11 S25N (human) and with GST-Rab11 WT (human) were 1.43, 2.89 and 1.8, respectively.

These data come from paper PMC9504172.
